In patent US9090676B2, “Method for treating Helicobacter pylori infections” (priority 2006, dated 2015):
“Also recorded” adds a separate entry of the source.

Tests used:
[1] = system: gamma glutamyl transpeptidase of Helicobacter pylori (HPGGT); experiment: GGT activity assay: inhibition of GGT by acivicin; assay type: biochemical
Method: (§1) The assay for GGT activity was adapted from the method of Meister et al.^27 Briefly, reaction buffer consisting of 20 mM glycyl-glycine (Sigma) as acceptor, 2.5 mM L-γ-glutamyl-p-nitroanilide (Calbiochem, Schwalbach, Germany) as donor substrate and 100 mM Tris-HCl (pH 8.0) was prepared. In some experiments pH of assay buffer was varied between 2 and 10. Supernatants of different H. pylori strains, purified recombinant HPGGT or equine kidney GGT (Sigma) were added and the reaction proceeded at 37° C. for 30 min. The release of p-nitroanilide was monitored by spectrophotometry at 405 nm. One unit of activity was defined as the quantity of enzyme that released 1 μmol of p-nitroanilide per min and per mg of protein at 37° C.
This compound acts as an irreversible and competitive inhibitor of GGT. […] Similar results were obtained for recombinant HPGGT (data not shown).

human PBMC = experiment: Cell proliferation assay (3H-thymidine incorporation), stimulated PBMC; assay type: cell-based
Method: Isolation of peripheral blood lymphocytes (PBMC) was performed as described previously^3. All cells were incubated at 37° C. with 5% CO2. Jurkat T cells and PBMC were cultured in RPMI 1640 (Invitrogen, Karlsruhe, Germany) with 10% FCS. EL-4 T cells were cultured in DMEM (Invitrogen) supplemented with 10% horse serum (Cambrex, Verviers, Belgium).
Cells (10^5 PBMC, purified primary T cells or 10^4 Jurkat/EL-4 cells/well) were cultured in 96-well flat-bottom plates in complete medium. PBMC were stimulated in triplicate with PMA (20 ng/ml; Sigma) and Ionomycin (100 ng/ml; Sigma) and all cells were grown with or without indicated total protein concentrations of H. pylori supernatants or recombinant proteins. Primary human T cells were stimulated with either PMA/Ionomycin as described above or with anti-CD3/CD28 beads (Invitrogen) at 1 bead per T cell. Cellular proliferation was determined after 48 h by methyl-[^3H]-thymidine (GE Healthcare) incorporation using a Packard Direct Beta Counter Matrix 9600 (Packard Instruments Co, Downer's Grove, Ill.).

Jurkat T cells [2] = experiment: Analysis of apoptosis (Annexin V-FITC/PI, FACS); assay type: cell-based; conditions: 1 μM, 24 h
Method: 5×10^5 Jurkat T cells were treated as indicated. After 24 h cells were harvested by centrifugation, washed, resuspended in 500 μl AnnexinV-binding buffer (10 mM HEPES/NaOH, pH7.4, 140 mM NaCl, 2.5 mM CaCl2) and stained for 10 min each with 5 μl recombinant Annexin V-FITC (Caltag, Burlingame, Calif.) and 0.5 μg/ml PI at room temperature in the dark. Apoptotic cells were measured by FACS analysis (see above). Data were analyzed using Cell Quest software.

HPGGT = experiment: Immunization of animals, sera assayed for inhibition of GGT catalytic activity; assay type: in vivo, Helicobacter pylori; conditions: mice, sera taken 6 weeks after immunization
Source text: FIG. 9 is a diagram indicating the inhibitory effect of sera from immunized or infected mice on enzymatic activity of HPGGT. Mice were immunized with the indicated formulations or received PBS as control or were infected with live H. pylori. Sera were taken from tail veins 6 weeks after immunization or infection and assayed for inhibitory activity towards GGT catalytic activity.
as §1

[3] = GGT activity assay: catalytic activity of GGT proteins and fractions; assay type: biochemical
Method: as §1

IL-2 = IL-2 ELISA of PBMC supernatants; assay type: cell-based, human; conditions: PBMC stimulated with PMA and Ionomycin, 24 h, compared to stimulated control
Method: (§2) PBMC (5×10^5 each) were treated for 24 h as depicted. At indicated time points cells were removed by centrifugation and supernatants were analyzed for amounts of IL-2 (eBioscience, San Diego, Calif.) and IFN-γ (Biosource, Solingen, Germany) by ELISA according to the manufacturer's instructions. The lower limits of detection were 4 pg/ml.
(§3) To date so far nothing was known about a role of HPGGT during suppression of the host's immune response. The inhibition of lymphocyte proliferation by HPGGT reported here might result from interference with cytokine secretion of human PBMCs. To test this hypothesis, cells were stimulated with PMA and Ionomycin and incubated with or without H. pylori wild-type and ΔGGT supernatants or recombinant HPGGT at different concentrations for 24 h. […] In addition secretion of IFN-γ was not reduced (FIG. 5B).

IFN-γ = IFN-γ ELISA of PBMC supernatants; assay type: cell-based, human; conditions: PBMC stimulated with PMA and Ionomycin, 24 h
Method: as §2, §3

Jurkat T cells [4] = experiment: Immunoblotting of cell cycle regulatory and signaling proteins; assay type: cell-based
Method: For immunoblot analysis 10^7 Jurkat T cells or PBMC were used. Prior to the experiment, Jurkat cells were serum starved for 18 h in medium containing 0.2% FCS. Afterwards, cells were released with 10% FCS and treated as depicted. At the indicated time points, the cells were harvested, washed once with ice-cold PBS, resuspended in 1× lysis buffer (Cell Signaling Technology, Danvers, Mass.) containing protease inhibitors (2.5 mM sodium pyrophosphate, 1 mM β-glycerophosphate, 1 mM Na3VO4, 1 μg/ml leupeptin, 1 mM PMSF; Sigma) and sonicated with a micro tip sonifier on ice for 30 sec. Lysates were centrifuged at 10000×g for 10 min at 4° C. and supernatants were used for immunoblotting. Equal amounts of protein (determined by Bradford assay, BioRad) were separated by Tricine-SDS-PAGE and electrotransferred onto nitrocellulose membranes (BioRad). For detection, membranes were probed with primary antibodies anti-p27, anti-Cyclin D3, anti-Cyclin E, anti-c-Myc (Dianova, Hamburg, Germany), anti-Cdk2 (Santa-Cruz Biotechnology, Heidelberg, Germany), anti-phospho-AKT (Ser 473), anti-phospho-c-Raf (Ser 338), anti-phospho-p70S6K (Thr 389; Cell Signaling), anti-phospho-FKHRL1/Foxo3 (Thr 32; Upstate, Lake Placid, N.Y.), anti-Actin (Sigma) and anti-VacA (Austral Biologicals, San Ramon, Calif.). […] For detection of the large subunit of the HPGGT protein a polyclonal rabbit anti-GGT antibody raised against a synthesized peptide IQPDTVTPSSQIKPGM including amino acid residues 356 to 371 of the HP 1118 gene product (Charles River, Kisslegg, Germany) was used.

human PBMCs = experiment: Immunoblotting of cell cycle regulatory proteins in PBMC; assay type: cell-based; conditions: 24 h and 48 h
Method: FIG. 6B an SDS PAGE of the proteins obtained from 10^7 PBMC which were incubated with different concentrations of HPWT and HPΔGGTSN or rHPGGT for 24 h and 48 h and subsequently lysed. 35 μg of total protein were separated by SDS-PAGE and analyzed by immunoblotting. Levels of indicated proteins were determined using the corresponding antibodies. Data were reproduced 2 times with similar results. (HP=H. pylori, SN=supernatant, WT=wild-type).
For immunoblot analysis 10^7 Jurkat T cells or PBMC were used. Prior to the experiment, Jurkat cells were serum starved for 18 h in medium containing 0.2% FCS. Afterwards, cells were released with 10% FCS and treated as depicted. At the indicated time points, the cells were harvested, washed once with ice-cold PBS, resuspended in 1× lysis buffer (Cell Signaling Technology, Danvers, Mass.) containing protease inhibitors (2.5 mM sodium pyrophosphate, 1 mM β-glycerophosphate, 1 mM Na3VO4, 1 μg/ml leupeptin, 1 mM PMSF; Sigma) and sonicated with a micro tip sonifier on ice for 30 sec. Lysates were centrifuged at 10000×g for 10 min at 4° C. and supernatants were used for immunoblotting. Equal amounts of protein (determined by Bradford assay, BioRad) were separated by Tricine-SDS-PAGE and electrotransferred onto nitrocellulose membranes (BioRad). […]

[5] = incubation of the HPGGT with acivicin
[6] = preincubation of HPWTSN with acivicin (50 μM) for 2 h at 37° C.

Question: Which “catalytic activity of HPGGT after incubation with acivicin” value [1, 5] does the source give for N[C@H](C(=O)O)[C@@H]1CC(Cl)=NO1 [acivicin] here?
Answer: completely abolishes

Question: What about the “GGT activity of H. pylori wild-type supernatants after pretreatment with acivicin” value [1, 6] of the same molecule?
Answer: abrogated; also recorded: completely repressed

Question: And the “inhibitory effect of the enzyme (HPGGT) towards lymphocytes after incubation with acivicin” value (human PBMC; [5])?
Answer: completely abolishes

Question: What about the “inhibition of PBMC proliferation by H. pylori wild-type supernatants after pretreatment with acivicin” value (human PBMC; [6]) of the same molecule?
Answer: abrogated; also recorded: completely repressed

Question: For CN[C@@H]1C[C@H]2O[C@@](C)([C@@H]1OC)n1c3ccccc3c3c4c(c5c6ccccc6n2c5c31)C(=O)NC4 [staurosporin, reference compound], which “apoptosis (positive control)” value (Jurkat T cells [2]) is on record?
Answer: strongly induced apoptosis

Question: For “IQPDTVTPSSQIKPGM [peptide 356-371, peptide of HPGGT residues 356 to 371, far from the catalytic center]”, which “inhibitory antibodies / inhibitory immune response against HPGGT in serum” value (HPGGT) is on record?
Answer: No inhibitory immune response

B1: recombinant HPGGT: recombinant His-tagged gamma glutamyl transpeptidase of H. pylori expressed in E. coli (protein, listed as Helicobacter pylori)
chain: MRRSFLKTIGLGVIALFLGLLNPLSAASYPPIKNTKVGLALSSHPLASEIGQKVLEEGGNAIDAAVAIGFALAVVHPAAGNIGGGGFAVIHLANGENVALDFREKAPLKATKNMFLDKQGNVVPKLSEDGYLAAGVPGTVAGMEAMLKKYGTKKLSQLIDPAIKLAENGYAISQRQAETLKEARERFLKYSSSKKYFFKKGHLDYQEGDLFVQKDLAKTLNQIKTLGAKGFYQGQVAELIEKDMKKNGGIITKEDLASYNVKWRKPVVGSYRGYKIISMSPPSSGGTHLIQILNVMENADLSALGYGASKNIHIAAEAMRQAYADRSVYMGDADFVSVPVDKLINKAYAKKIFDTIQPDTVTPSSQIKPGMGQLHEGSNTTHYSVADRWGNAVSVTYTINASYGSAASIDGAGFLLNNEMDDFSIKPGNPNLYGLVGGDANAIEANKRPLSSMSPTIVLKNNKVFLVVGSPGGSRIITTVLQVISNVIDYNMNISEAVSAPRFHMQWLPDELRIEKFGMPADVKDNLTKMGYQIVTKPVMGDVNAIQVLPKTKGSVFYGSTDPRKEF
modifications: His-tag
notes: recombinant His-tagged gamma glutamyl transpeptidase of H. pylori expressed in E. coli
Question: For B1, which “enzymatic GGT activity” value ([3]; pH 8.0, 37° C., 30 min) is on record?
Answer: strong GGT activity

Question: What about the “pH range of catalytic activity” value ([3]; pH of assay buffer varied between 2 and 10) of the same molecule?
Answer: 2-10

Question: And the “inhibition of PBMC proliferation” value (human PBMC; PBMC stimulated with PMA/Ionomycin, 48 h)?
Answer: efficiently inhibited

Question: And the “inhibitory effect of HPGGT on lymphocyte proliferation in the absence of glutamine” value (human PBMC; medium without the amino acid glutamine)?
Answer: completely abolished

Question: And the “reduction of IL-2 secretion” value (IL-2)?
Answer: none of these treatments led to reduction

Question: And the “secretion of IFN-γ” value (IFN-γ)?
Answer: not reduced

Question: And the Cyclin levels (Jurkat T cells [4]; 2 μg/ml)?
Answer: complete reduction

Question: And the “cellular levels and phosphorylation of AKT, p70S6k and Foxo 3 (PI3K-signaling)” value (Jurkat T cells [4]; Jurkat T cells and PBMC)?
Answer: not reduced

Question: And the “cellular levels of c-Myc and phosphorylation of c-Raf (Ras-dependent pathway)” value (Jurkat T cells [4]; Jurkat T cells and PBMC)?
Answer: reduced

Question: What about the “cell cycle regulating proteins (Cyclin D3, E1) in PBMC” value (human PBMCs) of the same molecule?
Answer: even stronger reduction
